The source of these data is the nanobody polyreactivity screen of Harvey et al. (2022).

This data set is described as follows: yeast display, Sf9 membrane polyspecificity reagent, FACS + sequencing; frameworks hold sequencing errors. Summed up: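 In a synthetic yeast display library (Saccharomyces cerevisiae BJ5465), nanobody expression was induced with galactose for 36–48 hours. FACS gates were set low and high (top ~1%) using anti-HA fluorescence for expression and streptavidin fluorescence for binding of the Sf9 membrane reagent. Each polyreactivity label is drawn from the gate of origin.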
As for “QVQLVESGGGLVQAGGSLRLSCAASGLIFGTYAMGWYRQAPGKERELVAVISSSGGSTYYADSVKGRFTISRDNAKNTVYLQMNSLKPEDTAVYYCNARAFRQGHFEYDYWGQGTQVTVSS”, the “polyreactivity (PSR sort gate)” value was “low polyreactivity”.
The entry for “QLQLGESGGGLVQAGGSLRLSCAASGSTFIVYAMGWYRQAPGKVRELVAAISSDGSTYYADSVKGRFTISRDNAKNTVYLQMNRLKPEYTAVYYCAAYVYDADTGYDYWGQGTQVTVSS” is “low polyreactivity”; for “QVQLVESGGGLVQAGCSLRLSCAASGLIFSKNVMGWYRQAPGKERELVAAISQRGGSTYYADSVKGRFTISRDNAKNTVYLQMNSLKPEDTAVYYCAADNSVSHEDYWGQGTQVTVSS” it is “high polyreactivity”; for “QVQLVESGGGLVQAGGSLRLSCAASGFIFYYYDMGWYRQAPGKERELVAAISTGGSTYYADSVKGRFTISRDNAKNTVYLQMNSLKPEDTAVYYCAADSYWSPYDYWGQGTQVTVSS” it is “high polyreactivity”.
“QVQLVESGGGLVQAGGSLRLSCAASGSIFVFYDMGWYRQAPGKERELVATISSGGGGTYYTDSVKGRFTISRDNAKNTVYLQMNSLKPEDTAVYYCAAEGDKYGKGYGYWGQGTQVTVSS”: the “polyreactivity (PSR sort gate)” value is “low polyreactivity”.
For the sequence “QVQLVESGGGLVQAGGSLRLSCAASGSIFKYYAMGWYRQAPGKERELVAAISSGGITNYADSVKGRFTISRDNAKNTVYLQMNSLKPEDTAVYYCAARDYVRLGLYDYDYWGQGTQVTVSS”, the “polyreactivity (PSR sort gate)” value was “low polyreactivity”.
The result for “QVQLVESGGGLVQAGGSLRLSCAASGSIFSDYAMGWYRQAPGKETELVAGISSGGGTTYADSVKGRFTISRDNAKNTVYLQMNSLKPEDTAVYYCNKQDQPVGRSGYPYGYDYWGQGTQVTVSS” reads “low polyreactivity”.
The entry for “QVQLVESGGGLVQAGGSLRLSCAASGFTFSPNAMRWYRQAPGKERELVAAIDWSGDRTYYADSVKGRFTISRDNAKNTVYLQMNSLKPEDTAVYYCAADIRDPGVPMDYWGQGTQVTVSS” is “low polyreactivity”.
The entry for “QVHLVESGGGFVQAGGSLRVSCAASGRSCGYNAMGWYRQAPGKERELVAAITSGGSTYYADSVKGRFTISRDNAKHTVYLQMNSLKPEDTAVYYCAARFSYWKTKRAYDWGQGTQVTVSS” is “high polyreactivity”.
On to “QVQLVESGGGLVQAGGSLRLSCAPSGSIFNYNIGSYRQAPVKERELVAAVSTNYADSVKGRFTISRDNAKNTVYIQMNSLKPADSAVYYCGVTPEKSCDEYDYWGQGTQVTVSS”, for which the “polyreactivity (PSR sort gate)” value is reported as “low polyreactivity”.
The entry for “QVQLVESGGGLVKAGGSLRLSCAASGRTFLRNAMGWYRQAPGKERELVATITRGGSTYYADSVKGRFTISRDNAKNTVYLQMNSLKPEDTAVYYCAKDITGCFRRPDYGYWGQGTQVTVSS” is “low polyreactivity”; for “QVELVESAGGLVQAGGSLRLSCAASGRIFAYNAMGWYRQAPGKERELVAAISQSGGSTYYADSVKGRFTISRANAKNTVYLQLNSLKPEDTAVYYCHAVYGRQYRGYNYKYYYWGQGTQVTVSS” it is “high polyreactivity”.
“QVQLVESGGGLVQAGGSLRLSCAASGSTFLTYAMGWYRQAPGKERELLAASTRSTSTYADSVKGRFTISRDNAKNTVYFQMNSLKPEDTAVYYCNVDSYFRWWYDEWGQGTQVTVSS”: the “polyreactivity (PSR sort gate)” value is reported as “high polyreactivity”.
With “QVQLVESGGGLVQAGGSLRLSCAASGFISFAYAMGWYRQAPGKERELVAGISRSGDSTYYADSVKGRFTISRDNAKNTVYLQMNSLKPEDTAVYYCAVVTYRSKAHSSRNGKYYYWGQGTQVTVSS”, the “polyreactivity (PSR sort gate)” value is reported as “low polyreactivity”.
The entry for “QVQLVESGGGLVQAGGSLRLSCAASGRTFVYYAMGWYRQAPGKEREFVAAISRSGGRTSYADSVKGRFTISRDKAKNTVYLQMNSLKPEDTAVYYCAAKVRQWRQGSYSSQYDYWGQGTQVTVSS” is “high polyreactivity”.
In the case of “QVQLVESAGGLVQAGGSLRLICAASGSIVASYPKGWYRQAPGKERELVAAISDGGGRTYYADSVKGRFTISRDNAKNTVYLQMNSLKPEDTAVYYCAAYAVYTYRRARVYWGQGTQVTVSS”, the “polyreactivity (PSR sort gate)” value is listed as “high polyreactivity”.
The entry for “QVQLVESGGGLVQAGGSLRLSCAASGSIFIRNAMGWYRQAPGKERELVAAISGSGSSTYYADSVKGRFTISRDNAKNTVYLQMNSLKPEDTSVYYCNTDRNHSYQYGGYDYWGQGTQVTVSS” is “low polyreactivity”; for “QVQLVESGGGLVQAGGILSLSCAASGNIFAYNAMGWYRQAPGKERELVAAITDSGGNTFYADSVKGRFTISRDNAKNTVYLQMISVKPEDTAVYYCAADPDGWGFVYPRYVSWGQGTQVTVSS” it is “low polyreactivity”; for “QVQLVESGGGLVQAGGSLRLSCAASGSIFNWNTMGWYRQAPGKERELVAAITYDGGTTYYADSVKGRFTISRDYAKNNVYLQMISLKPEDTAVYYCAAEFLYKYGRYDYWGQGTQVTVSS” it is “high polyreactivity”.
The result for “QVQLVESGGGLVQAGGSLRVSCAASGRTFGIYAMGWYRQAPGKEREFVAAISWSGTSTHYADSVKGRFTISRDNAKNTFYLQMNSLKPEDTAVYYCATRRSHYGKYDYWGQGTQVTVSS” reads “high polyreactivity”; that for “QVQHVESGGGLVQAGGSLRLICAASGLTFPYYAMGWYRQDAGKVSELVAAITWSGGTTDYADSVKGRFTISRDNAKNTVYFKMITLKPEDTAVYFCAARVLWKGYYWGQGTQVTVSS”, “low polyreactivity”.
The entry for “QVQLVESGGGLVQAGGSLRLSCAASGSTFSGYTMGWYRQAPGKERELVASISSGVSTYYADSVKGRFTISRDNAKNTVYLQMNSLKPEDTAVYYCAADSVGDYGYQVYASWGYEDEYWGQGTQVTVSS” is “low polyreactivity”.
In the case of “QVQLVESGGGLVQAGGSLRLSCAASGRIFTINAMGWYRQAPGKERELVASIRSTGGSTYYADSVKGRFTISRDNAKNTVYLQMNSLKPEDTAVYYCAADGGVAWGYGYWGQGTQVTVSS”, the “polyreactivity (PSR sort gate)” value is reported as “low polyreactivity”.
The entry for “QVQLVESGGGLVQAGGSLRLSCAASGSIFLIYAMGWYRQAPGKERELVAAISSGGSTYYADSVKGRFTISRDNAKNTVYLQINSLKPEDTAVYYCATYSTSVAYHLYYWGQGTQVTVSS” is “low polyreactivity”; for “QVQLVESGGGLVQAGGSLRLSCAASGFISAGYAMGWYRQAPGKERELVAAITRTGSTNYADSVKGRFTISRDNAKNTVYLQMNSLKPEDTAVYYCAAGRRGSAGYYRQFGYGYWGQGTQVTVSS” it is “high polyreactivity”.
The entry for “QVQLVESGGGLVQAGGSLRLSCAASGFIFSGYAMGWYRQAPGKERELVATISGSGGSTYYADSVKGRFTISRDNAKNTVYLQMNSLKPEDTAVYYCAARQRGGYGYWGQGTQVTVSS” is “high polyreactivity”; for “QVQLVDSGGGLVQAGGSLRLSCAASGSTVQYYAMGWYRQAPGKERELVAAITHSGTRTYYADSVKGRFTISRDNAKNTVYLQINSLKPEDTAVYYCAARGYGKYDYWGQGTQVTVSS” it is “high polyreactivity”; for “QVQLVESGGCLVQAGGSLRLSCAASGITFYEYAMGWSRQAPGKERELVAGITWSGGSTYYADSVKGRFTISRDNAKNTVYLEMNSLKPEDTAVYYCAATGAFWYPYDYWGQGTQVTVSS” it is “high polyreactivity”.
The result for “QVQLVESGGGLVQAGGSLRLSCAASGRIFYRYAMGWYRQAPGKERELVASITRSGITHYADSVKGRFTISRDNAKNTVYLQMNSLKPEDTAVYYCNARRGSPAPYDYWGQGTQVTVSS” reads “high polyreactivity”.
As to “QVQLVESGGGLVQAGGSLRISCAASGSIFWDNVMGWYRQAPGKERELVADIDSWDGGSTYYADSVKGRFTISRDNAKNTVYLQMNSLKPEDTAVYYCNTDVLWWRGGDDYWGQGTQVTVSS”, the “polyreactivity (PSR sort gate)” value is recorded as “low polyreactivity”.
